The record followed here is US20170002075A1 (AbbVie / Abbott, published 2017).

Experiment [1] concerns the target T1, hRAGE (1-331) / human sRAGE 1-331, V#400 (human, UniProt Q15109 23-331).
T1 construct: also called sRAGE [RAGE (1-331)]; RAGE (antigen of the Biacore runs)
Briefly: Biacore SPR, mAb captured via anti-mouse Fc, human sRAGE 1-331 (V#400) injected, concurrent experiment, 1:1 fit. The text has this:
Biacore 2000 and Biacore T100 instruments were used to measure anti-RAGE mAb binding kinetics. The assay format for mAb affinity analysis was Fc-based capture via immobilized anti-Fc antibodies. A standard amine coupling protocol was employed to immobilize Fc-specific IgG via primary amines to the carboxy-methyl (CM) dextran surface of CM5 sensorchips (Biacore). For the study of mouse anti-RAGE mAbs, anti-mouse Fc (Biacore, anti-mouse, BR-1005-14) was used as the immobilized capture reagent and for the study of humanized anti-RAGE mAbs, anti-human Fc (Pierce 31125) was used as the immobilized capture reagent. An automated protocol, available on the Biacore 2000 and Biacore T100, was used to immobilize 8000-10000 RU of capture reagent in all 4 flowcells of the sensorchip. Briefly, the CM-dextran surfaces were activated by freshly prepared 1:1 50 mM N-hydroxysuccinimide (NHS):200 mM 3-(N,N-dimethylamino) propyl-N-ethylcarbodiimide (EDC). Then the anti-Fc IgG capture reagent (20 ug/ml in 10 mM sodium acetate, pH4.5) was applied to the surface followed by deactivation of the surface and blocking of the residual reactive sites with 1M ethanolamine (pH 8.5).
Data were processed using either Biacore evaluation software or Scrubber 2.0 software (BioLogic Software). Briefly, the data were double referenced by first, subtracting the signal from the reference cell and second, by subtracting the signal from buffer-only injections. The double referenced data for the RAGE injection series were then fit globally to a 1:1 (Langmuir) binding model, which included a mass transfer term, to determine the binding kinetic rate constants, kₐ and kd, and the affinity, KD (kₐ=kₒₙ; kd=koff)

For experiment [2], the target named is T2, recombinant human RAGE (plate coat of the competition ELISA of Example 1.4).
T2 construct: not shown: The carrier of the coated preparation, if it had one
T2 sequence (chain, as listed by the source limits assumed): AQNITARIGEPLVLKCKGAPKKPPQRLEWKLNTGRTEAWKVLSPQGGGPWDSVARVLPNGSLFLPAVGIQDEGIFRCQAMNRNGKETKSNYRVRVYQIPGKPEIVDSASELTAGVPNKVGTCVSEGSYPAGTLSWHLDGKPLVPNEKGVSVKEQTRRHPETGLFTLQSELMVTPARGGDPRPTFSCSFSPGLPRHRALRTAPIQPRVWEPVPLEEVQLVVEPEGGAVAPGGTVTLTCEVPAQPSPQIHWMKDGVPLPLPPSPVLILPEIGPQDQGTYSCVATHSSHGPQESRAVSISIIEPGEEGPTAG
Description: competition ELISA on plates coated with recombinant human RAGE (2 µg/mL); competitor: biotinylated hybridoma-derived 11E6 (11E6-biotin), streptavidin-HRP, OD 450 nm; the unit comes from the axis 'Log MAbs (M)'. Here is the method: (§1) The purified chimeric anti-human RAGE monoclonal antibodies were tested for their ability to bind human RAGE in a competition ELISA. […] Equal volumes (50 μL) of each recombinant chimeric anti-human RAGE monoclonal antibodies or hybridoma-derived anti-human RAGE monoclonal antibodies and each corresponding biotinylated hybridoma-derived anti-RAGE mAbs were mixed. 50 μL of this mixture was then added to ELISA plates pre-coated with recombinant human RAGE at 2 μg/mL and incubated for 1.5 hours at room temperature. Wells were washed three times with PBS+0.05% Tween-20. Streptavidin HRP (1 mg/mL) was diluted 1:16000 in PBST+10% Superblock; 50 µL/well was added and the plates incubated for 1 hour at room temperature. Plates were washed 3 times with PBS+0.05% Tween-20. 50 µL of TMB solution (Sigma, St Louis, Mo.) was added to each well and incubated for 10 minutes at room temperature. The reaction was stopped by addition of IN sulphuric acid. Plates were read spectrophotometrically at a wavelength of 450 nm.
On the technique in general: In an ELISA, binding on a coated surface is turned into a signal by an enzyme label.

In experiment [3] the target is T2, recombinant human RAGE (plate coat of …). Description: competition ELISA on plates coated with recombinant human RAGE (2 µg/mL); competitor: biotinylated hybridoma-derived 7F9 (7F9-biotin), streptavidin-HRP, OD 450 nm; the unit comes from the axis 'Log MAbs (M)'. As for the experimental part: as §1
The next experiment addresses mouse RAGE (Mu-RAGE) (mouse, UniProt Q62151 23-340, limits assumed). Briefly: Biacore SPR (Table 7, column Mouse-RAGE); paragraph 283: 'Table 7 shows that 4E5 did not bind to mouse RAGE (Mu-RAGE)'. A general note: In SPR one partner is held on a chip, and binding of the other changes the refractive index at the surface.
In experiment [4] the target is T2, recombinant human RAGE (plate coat of …). Description: competition ELISA on plates coated with recombinant human RAGE (2 µg/mL); competitor: biotinylated hybridoma-derived 4E5 (4E5-biotin), streptavidin-HRP, OD 450 nm; the unit comes from the axis 'Log MAbs (M)'. As for the experimental part: as §1

In general, Kd refers to the concentration at which binding is half-saturated. A higher Kd goes with a looser complex. What is called koff is a measure of how fast the partners let go of each other. The kon is a measure of how fast the partners come together. The low end stands for slower complex formation, the high end for faster complex formation. By EC50 is commonly meant the concentration at which the effect is half-maximal.

T1 sequence (Q15109 23-331): as the sequence (chain, as listed by the source limits assumed) above
Sequence of mouse RAGE (Mu-RAGE) (Q62151 23-340 limits assumed): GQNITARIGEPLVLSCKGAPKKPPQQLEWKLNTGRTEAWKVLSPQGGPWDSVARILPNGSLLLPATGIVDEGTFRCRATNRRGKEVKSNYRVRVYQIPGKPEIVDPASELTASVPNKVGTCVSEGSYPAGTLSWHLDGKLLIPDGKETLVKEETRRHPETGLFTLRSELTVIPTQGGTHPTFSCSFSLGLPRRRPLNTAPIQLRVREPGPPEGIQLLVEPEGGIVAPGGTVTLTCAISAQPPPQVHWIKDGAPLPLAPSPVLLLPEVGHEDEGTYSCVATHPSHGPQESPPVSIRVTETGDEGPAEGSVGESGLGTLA

B1: anti-human RAGE monoclonal antibody 11E6 (murine, hybridoma-derived) (antibody, V domains shown)
VH: QIQLVQSGPELKKPGETVKISCKASGYTFTNFGMNWVKQAPGKGLKWMGYINTNTGESIYSEEFKGRFAFSLETSASTAYLQINNLKNEDTATYFCARSRMVTAYGMDYWGQGTSVTVSS
VL: DIVMTQSQKFMSTSVGDRVSITCKASQNVGTAVAWYQQRPGQSPKLLIFSASNRYTGVPDRFTGSGSGTDFTLTLSNMQPEDLADYFCQQYSSYPLTFGVGTKLELKR
notes: also called mAb11E6; ML37-11E6
On to B1, for which, in experiment [1], the Kd came out at 0.068 nM, the koff came out at 0.0013 s⁻¹ and the kon is 1.8e+07 M⁻¹ s⁻¹. The EC50 in experiment [2] is 90.9 nM.

B2: anti-human RAGE monoclonal antibody 7F9 (murine, hybridoma-derived) (antibody, V domains shown)
VH: EEKLEESGGGLVQLGGSMKISCVASGFTLSNYWMDWVRQSPEKGLEWIAEIRLKSNYYSTHYAESVKGRFSISRDDSKGSVSLQMDNLTAEDTGIYFCARNAYWYFDVWGTGTTVTVSS
VL: DIVMTQSHKFMSTSVGDRVSATCKASQDVGTSVAWYQQKLGQSPKLLIYWTSTRHTGVPDRFTGSGSGTDFTLTISNVQSEDLADYFCQQYNNYPLTFGDGTKLELKR
notes: also called mAb7F9; MAb 7F9
Take B2: in experiment [3], the EC50 is 166 nM.

B3: anti-human RAGE monoclonal antibody 4E5 (murine, hybridoma-derived) (antibody, V domains shown)
VH: QVQLQQSGAELVRPGTSVKVSCKASGYAFNNYLIEWIKQRPGQGLEWIGVINPGSGGTNHNEKFKVKATLTADKSSSTAYIQLSSLTSDDSAVYFCARSAGTARARFAYWGQGTLVTVSA
VL: DIQMTQSPSSLSASLGERVSLTCRASQDIGSSLNWLQQEPDGTIKRLIYATSSLDSGVPKRFSGSRSGSDYSLTISSLESEDFVDYYCLQYASFPFTFGSGTKLEIKR
notes: also called mAb4E5; ML37-4E5
For B3, in the experiment with mouse RAGE (Mu-RAGE), the binding result was “no binding”. Further, the EC50 in experiment [4] is 244 nM.
